The text below walks through data of US20110098218A1 (AGENCY FOR SCIENCE TECHNOLOGY AND RESEARCH, published 2011).

The target in the assay is T1, Flag-tagged mouse STAT3 (pXJ40-Flag-mSTAT3) (mouse, UniProt P42227 1-770, limits assumed, phosphorylated after leptin treatment (phospho-STAT3); the site is not given).
T1 construct: also called phospho-STAT3; Flag-tagged STAT3; not shown: Flag tag
As to the kind of experiment: coimmunoprecipitation.

T1 sequence (P42227 whole entry): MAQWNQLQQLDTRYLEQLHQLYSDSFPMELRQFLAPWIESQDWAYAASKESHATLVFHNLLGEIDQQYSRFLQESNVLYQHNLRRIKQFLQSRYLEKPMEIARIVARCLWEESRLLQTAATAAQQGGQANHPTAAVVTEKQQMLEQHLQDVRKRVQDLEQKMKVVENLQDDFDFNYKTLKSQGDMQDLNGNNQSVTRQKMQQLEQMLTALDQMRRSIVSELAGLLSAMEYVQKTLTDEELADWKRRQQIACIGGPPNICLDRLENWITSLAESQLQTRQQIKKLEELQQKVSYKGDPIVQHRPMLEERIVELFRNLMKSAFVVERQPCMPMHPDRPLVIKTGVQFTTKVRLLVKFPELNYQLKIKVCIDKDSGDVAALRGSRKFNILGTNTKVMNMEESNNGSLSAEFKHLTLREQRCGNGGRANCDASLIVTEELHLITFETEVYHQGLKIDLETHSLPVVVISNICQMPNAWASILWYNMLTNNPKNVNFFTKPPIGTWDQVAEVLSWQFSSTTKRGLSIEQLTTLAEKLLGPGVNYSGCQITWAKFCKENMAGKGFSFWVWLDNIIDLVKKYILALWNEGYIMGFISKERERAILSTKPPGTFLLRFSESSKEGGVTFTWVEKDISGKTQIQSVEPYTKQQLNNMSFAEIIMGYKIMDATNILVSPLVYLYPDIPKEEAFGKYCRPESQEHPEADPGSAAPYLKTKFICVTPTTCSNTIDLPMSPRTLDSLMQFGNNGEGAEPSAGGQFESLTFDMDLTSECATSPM

B1: FoxO1^(1-123)-(168-652) (other, UniProt Q9R1E0 1-123, looked up)
chain: MAEAPQVVETDPDFEPLPRQRSCTWPLPRPEFNQSNSTTSSPAPSGGAAANPDAAASLASASAVSTDFMSNLSLLEESEDFARAPGCVAVAAAAAASRGLCGDFQGPEAGCVHPAPPQPPPTGKAIESSAEKRLTLSQIYEWMVKSVPYFKDKGDSNSSAGWKNSIRHNLSLHSKFIRVQNEGTGKSSWWMLNPEGGKSGKSPRRRAASMDNNSKFAKSRGRAAKKKASLQSGQEGPGDSPGSQFSKWPASPGSHSNDDFDNWSTFRPRTSSNASTISGRLSPIMTEQDDLGDGDVHSLVYPPSAAKMASTLPSLSEISNPENMENLLDNLNLLSSPTSLTVSTQSSPGSMMQQTPCYSFAPPNTSLNSPSPNYSKYTYGQSSMSPLPQMPMQTLQDSKSSYGGLNQYNCAPGLLKELLTSDSPPHNDIMSPVDPGVAQPNSRVLGQNVMMGPNSVMPAYGSQASHNKMMNPSSHTHPGHAQQTASVNGRTLPHVVNTMPHTSAMNRLTPVKTPLQVPLSHPMQMSALGSYSSVSSCNGYGRMGVLHQEKLPSDLDGMFIERLDCDMESIIRNDLMDGDTLDFNFDNVLPNQSFPHSVKTTTHSWVSG
As for B1, the binding result was “no binding”.

B2: FoxO1^(1-123) (other)
chain: MAEAPQVVETDPDFEPLPRQRSCTWPLPRPEFNQSNSTTSSPAPSGGAAANPDAAASLASASAVSTDFMSNLSLLEESEDFARAPGCVAVAAAAAASRGLCGDFQGPEAGCVHPAPPQPPPTG
Regarding B2, the binding result was “no binding”.
